Sequences and labels used below:
B1: anti-lysozyme VNAR (lyso-VNAR) C30A; C112.1S (protein)
chain: ARVDQTPQTITKETGESLTINCVLRDSNAALSSTYWYRKKSGSTNEESISKGGRYVETVNSGSKSFSLRINDLTVEDSGTYRCKPESRYGSYDAESAALNDQYGGGTVVTVN
B2: anti-lysozyme VNAR (lyso-VNAR) C30L; C112.1L (protein)
chain: ARVDQTPQTITKETGESLTINCVLRDSNLALSSTYWYRKKSGSTNEESISKGGRYVETVNSGSKSFSLRINDLTVEDSGTYRCKPESRYGSYDAELAALNDQYGGGTVVTVN
B3: anti-lysozyme VNAR (lyso-VNAR) C30P; C112.1T (protein)
chain: ARVDQTPQTITKETGESLTINCVLRDSNPALSSTYWYRKKSGSTNEESISKGGRYVETVNSGSKSFSLRINDLTVEDSGTYRCKPESRYGSYDAETAALNDQYGGGTVVTVN
B4: anti-lysozyme VNAR (lyso-VNAR) C30G; C112.1L (protein)
chain: ARVDQTPQTITKETGESLTINCVLRDSNGALSSTYWYRKKSGSTNEESISKGGRYVETVNSGSKSFSLRINDLTVEDSGTYRCKPESRYGSYDAELAALNDQYGGGTVVTVN
B5: anti-lysozyme VNAR (lyso-VNAR) C30G; C112.1A (protein)
chain: ARVDQTPQTITKETGESLTINCVLRDSNGALSSTYWYRKKSGSTNEESISKGGRYVETVNSGSKSFSLRINDLTVEDSGTYRCKPESRYGSYDAEAAALNDQYGGGTVVTVN
B6: anti-lysozyme VNAR (lyso-VNAR) C30L; C112.1A (protein)
chain: ARVDQTPQTITKETGESLTINCVLRDSNLALSSTYWYRKKSGSTNEESISKGGRYVETVNSGSKSFSLRINDLTVEDSGTYRCKPESRYGSYDAEAAALNDQYGGGTVVTVN
B7: anti-lysozyme VNAR (lyso-VNAR) C30W; C112.1V (protein)
chain: ARVDQTPQTITKETGESLTINCVLRDSNWALSSTYWYRKKSGSTNEESISKGGRYVETVNSGSKSFSLRINDLTVEDSGTYRCKPESRYGSYDAEVAALNDQYGGGTVVTVN

In the assay the target is lysozyme from egg, P00698. Kind of assay: SPR. Particulars: chain shown with the change; lysozyme immobilized, VNAR flowed over; 1:1 fitting model.
lysozyme from egg, P00698, sequence (P00698 19-147): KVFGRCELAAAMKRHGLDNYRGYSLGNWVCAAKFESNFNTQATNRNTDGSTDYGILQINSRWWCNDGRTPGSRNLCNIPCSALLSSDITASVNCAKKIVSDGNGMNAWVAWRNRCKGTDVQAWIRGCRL
On to B1, for which the ratio to parent was 31.5.

Take B2: the ratio to parent is 100.

With B3, the ratio to parent was 211.

Turning to B4, the ratio to parent came out at 12.7.

As to B5, the ratio to parent worked out at 24.1.

Consider B6, for which the ratio to parent is 19.1.

As to B7, the ratio to parent was found to be 54.3.

Source of the values: publication PMC11432006.
